T1: FtsA (wild-type, untagged) (E. coli (PCR amplified from MG1655 …, UniProt P0ABH0 1-420))
T1 sequence (looked up): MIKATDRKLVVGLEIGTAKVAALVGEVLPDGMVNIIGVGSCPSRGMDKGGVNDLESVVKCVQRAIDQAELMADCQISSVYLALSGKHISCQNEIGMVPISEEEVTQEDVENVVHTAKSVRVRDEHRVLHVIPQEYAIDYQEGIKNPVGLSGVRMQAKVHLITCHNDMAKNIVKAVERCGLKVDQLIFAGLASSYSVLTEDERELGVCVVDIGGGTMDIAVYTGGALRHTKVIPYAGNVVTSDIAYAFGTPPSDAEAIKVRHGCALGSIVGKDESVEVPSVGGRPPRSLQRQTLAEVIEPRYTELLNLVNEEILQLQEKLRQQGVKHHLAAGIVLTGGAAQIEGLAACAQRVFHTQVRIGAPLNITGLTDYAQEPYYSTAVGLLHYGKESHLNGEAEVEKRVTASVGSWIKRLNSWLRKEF

B1: FtsZ (untagged) (natural protein, UniProt P0A9A6 1-383, looked up)
chain: MFEPMELTNDAVIKVIGVGGGGGNAVEHMVRERIEGVEFFAVNTDAQALRKTAVGQTIQIGSGITKGLGAGANPEVGRNAADEDRDALRAALEGADMVFIAAGMGGGTGTGAAPVVAEVAKDLGILTVAVVTKPFNFEGKKRMAFAEQGITELSKHVDSLITIPNDKLLKVLGRGISLLDAFGAANDVLKGAVQGIAELITRPGLMNVDFADVRTVMSEMGYAMMGSGVASGEDRAEEAAEMAISSPLLEDIDLSGARGVLVNITAGFDLRLDEFETVGNTIRAFASDNATVVIGTSLDPDMNDELRVTVVATGIGMDKRPEITLVTNKQVQQPVMDRYQQHGMAPLTQEQKPVAKVVNDNAPQTAKEPDYLDIPAFLRKQAD

Legend:
[1] = molecular target: T1, FtsA (wild-type, untagged); assay: co-sedimentation
FtsZ (untagged) = molecular target: B1; assay: co-sedimentation

Binder | binding result [1] | binding result (FtsZ (untagged))
B1 | binds | 
His-Δ22-ZipA (domain or fragment) not shown |  | binds

Source: paper PMC4019675 (Nature cell biology, 2013)
